# Measured values: US20230272056A1 (Merck Sharp & Dohme, published 2023)
# Several values for one entry are separate records, joined by “and”; a condition that tells them apart may be missing. Equal entries are not always repeated. Where two headings read alike, the source gives them in different places.
# Tests used:
# [1] = biological target: T1, human LAP-TGFB1 Fc fusion (human); assay: SPR, antigen-Fc captured, Fab analyte
# T1 construct: also called human LAP-TGFβ1-Fc; human LAP-TGFβ-Fc isoform 1
# T1 sequence (chain, as listed by the source limits assumed): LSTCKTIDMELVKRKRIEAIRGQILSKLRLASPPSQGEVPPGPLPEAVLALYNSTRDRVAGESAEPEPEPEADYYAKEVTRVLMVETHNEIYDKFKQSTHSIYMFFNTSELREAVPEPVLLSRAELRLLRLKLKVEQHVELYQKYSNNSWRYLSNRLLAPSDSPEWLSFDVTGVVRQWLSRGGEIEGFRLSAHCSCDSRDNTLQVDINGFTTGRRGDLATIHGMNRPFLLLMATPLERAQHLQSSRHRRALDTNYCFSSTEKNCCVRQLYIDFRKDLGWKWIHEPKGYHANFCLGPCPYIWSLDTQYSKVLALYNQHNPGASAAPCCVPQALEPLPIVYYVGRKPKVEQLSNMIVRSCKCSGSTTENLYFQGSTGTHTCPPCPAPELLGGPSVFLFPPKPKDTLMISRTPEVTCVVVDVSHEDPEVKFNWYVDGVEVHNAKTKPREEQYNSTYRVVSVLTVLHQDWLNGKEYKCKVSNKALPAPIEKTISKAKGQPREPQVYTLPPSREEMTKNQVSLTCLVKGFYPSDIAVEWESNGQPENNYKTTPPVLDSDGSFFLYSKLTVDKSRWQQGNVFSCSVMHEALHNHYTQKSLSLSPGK
# How it was run: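 Surface plasmon resonance on a Biacore T200 measured how Fab fragments bind human LAP-TGFβ fused to Fc. The Fc protein was captured on a Series S CM4 chip carrying immobilized anti-human Fc antibody, with Fab injected as analyte in 1× HBS-EP+. Signals were double referenced, and rate constants came from a 1:1 binding fit.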
# [2] = biological target: T1, human LAP-TGFB1 Fc fusion; assay: SPR pH 6.0, antigen-Fc captured, Fab analyte
# How it was run: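 Biacore T200 SPR at pH 6.0 in HBS-EP+, antigen-Fc captured on anti-human Fc CM4 surface with Fab as analyte. Sensorgrams double-referenced against capture-only flow cell and 0 nM Fab injection; rate constants fitted to a 1:1 binding model.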
# [3] = biological target: T1, human LAP-TGFB1 Fc fusion; assay: SPR pH 7.4, antigen-Fc captured, Fab analyte
# [4] = biological target: T1, human LAP-TGFB1 Fc fusion; assay: SPR pH 7.4, antigen-Fc captured, Fab analyte; remark: listed apart in the source
# [5] = biological target: T1, human LAP-TGFB1 Fc fusion; assay: SPR
# [6] = biological target: T2, human LAP-TGFB2 Fc fusion (human); assay: SPR
# T2 construct: also called human LAP-TGFβ2; LAP-TGFβ isoform 2
# T2 sequence (chain, as listed by the source limits assumed): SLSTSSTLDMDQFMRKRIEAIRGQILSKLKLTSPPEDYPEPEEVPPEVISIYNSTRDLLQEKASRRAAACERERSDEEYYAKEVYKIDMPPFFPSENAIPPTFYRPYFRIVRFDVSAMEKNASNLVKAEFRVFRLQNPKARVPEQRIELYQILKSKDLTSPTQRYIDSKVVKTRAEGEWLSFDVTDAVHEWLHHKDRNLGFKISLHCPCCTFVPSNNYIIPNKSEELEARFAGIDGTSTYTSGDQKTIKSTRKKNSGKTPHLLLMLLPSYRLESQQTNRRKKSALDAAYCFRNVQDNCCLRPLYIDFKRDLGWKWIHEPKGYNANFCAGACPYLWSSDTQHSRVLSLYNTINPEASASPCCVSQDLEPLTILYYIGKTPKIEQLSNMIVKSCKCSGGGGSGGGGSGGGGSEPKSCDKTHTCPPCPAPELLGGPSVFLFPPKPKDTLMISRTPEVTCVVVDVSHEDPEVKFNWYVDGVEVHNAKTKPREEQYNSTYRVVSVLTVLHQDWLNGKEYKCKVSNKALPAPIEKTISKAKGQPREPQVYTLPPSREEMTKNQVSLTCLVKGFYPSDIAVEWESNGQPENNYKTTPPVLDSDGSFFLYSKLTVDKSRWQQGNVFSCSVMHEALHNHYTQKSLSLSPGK
# Experimental: (§1) A Series S CM4 sensor chip (GE Healthcare, catalog BR100534) was immobilized with an anti-human Fc capture antibody following the kit protocol (GE Healthcare, catalog BR100839) on a Biacore T200 instrument with 1× HBS-EP+ (Teknova, catalog H8022). […] Binding specificity between human LAP-TGFβ isoforms 2 and 3 and the tyrosine scanning double mutants were performed in 1× HEPES-buffered saline with EDTA and surfactant (HBS)-EP)+with 0.1 mg/mL BSA at 25° C. […] The binding data were double referenced by subtraction of signal from a reference (capture surface only) flow cell and the negative control 0 nM Fab injection. Binding rate constants were determined by fitting the data with a 1:1 binding model (GE Healthcare Biacore T200 Evaluation software 3.0).
# [7] = biological target: T3, human LAP-TGFB3 Fc fusion (human); assay: SPR
# T3 construct: also called human LAP-TGFβ3; LAP-TGFβ isoform 3
# T3 sequence (chain, as listed by the source limits assumed): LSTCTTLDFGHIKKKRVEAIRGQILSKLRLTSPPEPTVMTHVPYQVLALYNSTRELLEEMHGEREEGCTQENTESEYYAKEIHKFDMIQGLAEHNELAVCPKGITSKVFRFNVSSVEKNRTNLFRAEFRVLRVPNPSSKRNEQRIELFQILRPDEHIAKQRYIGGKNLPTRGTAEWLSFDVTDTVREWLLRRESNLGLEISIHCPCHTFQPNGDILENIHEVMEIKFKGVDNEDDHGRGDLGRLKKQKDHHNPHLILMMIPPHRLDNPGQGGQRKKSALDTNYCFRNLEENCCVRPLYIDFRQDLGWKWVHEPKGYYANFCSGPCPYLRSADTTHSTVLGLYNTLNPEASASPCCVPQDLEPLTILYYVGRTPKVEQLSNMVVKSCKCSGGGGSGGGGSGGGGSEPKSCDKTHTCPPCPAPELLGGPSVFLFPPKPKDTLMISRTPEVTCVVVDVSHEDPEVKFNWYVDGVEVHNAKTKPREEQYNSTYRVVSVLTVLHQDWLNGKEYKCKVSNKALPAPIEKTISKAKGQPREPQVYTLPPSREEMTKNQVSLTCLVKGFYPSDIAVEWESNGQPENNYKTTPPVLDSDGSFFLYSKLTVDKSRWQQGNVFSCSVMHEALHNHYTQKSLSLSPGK
# Experimental: as §1
# [8] = biological target: T1, human LAP-TGFB1 Fc fusion; assay: BLI off-rate screen
# Experimental: The Fab mutants including a positive control, 20E6 Fab, and a negative control Fab (Molecular Innovations, catalog HU-FAB-4510) were diluted to 200 nM in assay buffer and loaded to FAB2G sensors for 180 seconds followed by a one-hour incubation at room temperature in assay buffer to equilibrate the tips. The Fab loaded sensors were assessed for binding with 100 nM human LAP-TGFβ for 180 seconds followed by a 180 second dissociation phase in assay buffer on a ForteBio HTX (software version 9.0.0.66). Non-specific binding to the negative control Fab was subtracted and the binding sensorgrams were aligned to the start of the association phase on the X and Y axis. The Fab binding was fit with the 1:1 binding model, dissociation phase only, with local fitting using ForteBio Data Analysis 9.0 software.
# [9] = biological target: T1, human LAP-TGFB1 Fc fusion; assay: BLI off-rate screen; remark: listed apart in the source
# How it was run: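 Tyrosine-substituted CDR Fab variants loaded at 200 nM on FAB2G biosensors, equilibrated 1 h at RT, then exposed to 100 nM human LAP-TGFβ1 for 180 s and dissociated 180 s. Off-rate from 1:1 model fit of dissociation phase only, after negative-control Fab subtraction.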
# [10] = biological target: T1, human LAP-TGFB1 Fc fusion; assay: SPR, antigen-Fc captured, Fab analyte; remark: listed apart in the source
# [11] = biological target: T4, human LAP-TGFβ1 (construct not stated) (human, UniProt P01137 30-390); assay: KinExA, Fab as constant binding partner
# T4 construct: also called human LAP-TGFβ isoform 1; titrant
# T4 sequence (P01137 30-390 limits assumed): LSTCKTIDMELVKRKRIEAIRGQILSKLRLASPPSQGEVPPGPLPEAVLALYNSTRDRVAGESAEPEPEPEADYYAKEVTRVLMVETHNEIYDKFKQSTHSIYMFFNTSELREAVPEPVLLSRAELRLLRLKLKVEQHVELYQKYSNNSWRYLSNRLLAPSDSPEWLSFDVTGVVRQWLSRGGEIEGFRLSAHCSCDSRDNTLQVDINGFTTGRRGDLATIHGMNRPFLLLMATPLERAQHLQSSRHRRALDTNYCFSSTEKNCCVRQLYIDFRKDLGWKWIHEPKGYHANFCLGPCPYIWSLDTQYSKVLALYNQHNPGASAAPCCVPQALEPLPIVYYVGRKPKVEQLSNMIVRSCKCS
# Experimental: An orthogonal kinetic exclusion assay (KinExA) method was used in this study to measure the affinity of an affinity-matured anti-LAP-TGF β1 Fab 69BJN (referred to as the constant binding partner, CBP) and human LAP-TGFβ1 (referred to as the titrant). […] Two equilibrium experiments were prepared in assay buffer (1× PBS, 1 mg/mL BSA, and 0.05% NaN₃) with 5 pM or 100 pM of 69BJN as CBP followed by mixing and equilibrating with 1:10 serially diluted human LAP-TGFβ1 from 10 nM to 1 pM including a negative control 0 nM. The KinExA method was performed as follows: PMMA beads were loaded into the flow cell, a single concentration of titrant human LAP-TGFβ1 at equilibrium with 69BJN CBP was flowed over the flow cell, free CBP bound by PMMA beads was detected with rabbit anti-human IgG, F(ab′)₂ fragment specific-647 conjugate (Jackson Immunoresearch, catalog 309-005-006). This method was repeated in duplicate over the entire concentration series for each of the two different equilibrium series. The binding signals were analyzed with KinExA Pro software (version 4.4.26) where the free CBP binding signals were converted into percent free response and plotted against the titrant concentration series. The equilibrium KD was determined by using the titrant concentration as a reference and calculating percent activity of the ligand (CBP).
# [12] = biological target: T2, human LAP-TGFB2 Fc fusion; assay: SPR; remark: listed apart in the source
# How it was run: (§2)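 Fc-tagged human LAP-TGFβ2 and 3 captured at ~20-40 RU on anti-human Fc surface in HBS-EP+ with 0.1 mg/mL BSA, 25° C; Fab injected at 1000 nM. Double-referenced against capture-only flow cell and 0 nM Fab; rate constants from 1:1 binding model fit.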
# [13] = biological target: T3, human LAP-TGFB3 Fc fusion; assay: SPR; remark: listed apart in the source
# How it was run: as §2
binder,measurement,setting,value
"20E6 Fab (80BGJ/85BIT) (Fab, V domains shown, also called 20E6 (80BGJ); 20E6 (85BIT)) VH: EVQLVQSGAEVKKPGASVKVSCKASGYTFTSYWMHWVRQAPGQGLEWMGRIDPQSGGIKYAQKFQGRATLTVDTSTSTAYMELSRLRSDDTAVYYCARWDYGGYFDVWGQGTLVTVSS VL: DIQMTQSPSSLSASVGDRVTITCRASQDITNYLNWYQQKPGKAVKLLIYYTSRLHSGVPSRFSGSGSGTDYTLTISSLQPEDFATYFCQQGDTLPWTFGQGTKLEIKR",Fold improvement in KD,[1],1 fold
same,Kd,[1],79.9 nM
same,koff,[1],0.0769 s⁻¹
same,kon,[1],960000 M⁻¹ s⁻¹
same,Kd,[2],103 nM
same,koff,[2],0.096 s⁻¹
same,kon,[2],934000 M⁻¹ s⁻¹
same,Kd,[3],58.5 nM
same,koff,[3],0.0769 s⁻¹
same,kon,[3],1.32e+06 M⁻¹ s⁻¹
same,Fold improvement in KD,[4],1 fold
same,Kd,[4],58.5 nM
same,koff,[4],0.0769 s⁻¹
same,kon,[4],1.32e+06 M⁻¹ s⁻¹
same,Fold change in KD from pH 7.4 to pH 6,[5],1.8 fold
same,binding result,[6],no binding (tested: 1000 nM Fab)
same,binding result,[7],no binding (tested: 1000 nM Fab)
same,koff,[8],0.0468 s⁻¹ and 0.0381 s⁻¹
same,koff,[9],0.0468 s⁻¹ and 0.0381 s⁻¹
same,Fold improvement in KD,[10],1 fold
same,Kd,[10],81.2 nM
same,koff,[10],0.103 s⁻¹
same,kon,[10],1.45e+06 M⁻¹ s⁻¹
"69BJN (Fab, V domains shown, also called VH W33D I58T / VL T30Y R53V (69BJN)) VH: EVQLVQSGAEVKKPGASVKVSCKASGYTFTSYDMHWVRQAPGQGLEWMGRIDPQSGGTKYAQKFQGRATLTVDTSTSTAYMELSRLRSDDTAVYYCARWDYGGYFDVWGQGTLVTVSS VL: DIQMTQSPSSLSASVGDRVTITCRASQDIYNYLNWYQQKPGKAVKLLIYYTSVLHSGVPSRFSGSGSGTDYTLTISSLQPEDFATYFCQQGDTLPWTFGQGTKLEIKR",Fold improvement in KD,[1],695 fold
same,Kd,[1],0.115 nM
same,koff,[1],0.000488 s⁻¹
same,kon,[1],4.25e+06 M⁻¹ s⁻¹
same,Kd,[11],0.028 nM
same,binding result,[12],no binding (tested: 1000 nM Fab)
same,binding result,[13],no binding (tested: 1000 nM Fab)
